From patent US20240101959A1, “USE OF IL-2R-BETA-GAMMA AGONIST PEPTIDES IN CELL MANUFACTURING” (MEDIKINE, INC., priority 2022, published 2024) come the findings set out here.

Test [1] deals with T1, hu-IL-2Rγc subunit (human, UniProt P31785 23-262, limits assumed).
T1 sequence (looked up): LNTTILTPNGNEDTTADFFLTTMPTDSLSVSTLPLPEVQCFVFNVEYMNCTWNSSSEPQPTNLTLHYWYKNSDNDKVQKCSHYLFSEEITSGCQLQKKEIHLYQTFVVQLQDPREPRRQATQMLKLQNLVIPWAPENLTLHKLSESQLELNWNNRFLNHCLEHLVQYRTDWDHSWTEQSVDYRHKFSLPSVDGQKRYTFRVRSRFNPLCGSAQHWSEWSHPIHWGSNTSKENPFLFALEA

In test [2] the target is T1, hu-IL-2Rγc subunit. In words: phage ELISA competition assay.
The target of test [3] is T2, hu-IL-2Rγc subunit (human), P31785.
T2 chain: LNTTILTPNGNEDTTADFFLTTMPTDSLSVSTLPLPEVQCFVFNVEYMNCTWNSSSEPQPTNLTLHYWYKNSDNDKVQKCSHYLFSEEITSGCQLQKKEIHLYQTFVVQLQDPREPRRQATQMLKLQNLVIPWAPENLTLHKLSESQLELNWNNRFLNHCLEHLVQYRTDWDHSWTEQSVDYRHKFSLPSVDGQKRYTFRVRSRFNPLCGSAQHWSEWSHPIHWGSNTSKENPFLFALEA

Test [4] shares this target. In words: phage ELISA competition assay.

Like-named read-outs stand apart in the source and are kept apart here. Non-standard residues stand in square brackets, D forms with d. No end group written: not given here. Alb = not defined here

GGVVCQDWEGVELCWQPPA (not fully specified (bridges); cysteine pairing not given here) [SEQ ID NO 748]: the concentration for half-maximal inhibition (IC50) with hu-IL-2Rγc subunit [1] was < 100 µM.

For KLTVECQDWDGVELCWVGVE [SEQ ID NO 684], the IC50 with hu-IL-2Rγc subunit [1] is < 100 µM; in the test with hu-IL-2Rγc subunit [2], < 10 µM.

In the case of IVCEEYNGVELCWVETSVKP (modifications not checked) [SEQ ID NO 700], the IC50 was < 100 µM in test [3] and < 10 µM in test [4].

Take RSDDEVVVCQEWEGVELCWQ [SEQ ID NO 666]: the results for the IC50 with hu-IL-2Rγc subunit [1] and with hu-IL-2Rγc subunit [2] were < 100 µM and < 10 µM, respectively.

For KYIVECQEWGGVELCWPEMV (modifications not checked) [SEQ ID NO 697], the results for the IC50 in test [3] and in test [4] were < 100 µM and < 10 µM, respectively.

Regarding GGVMCERWQGVELCWLGG [SEQ ID NO 738], in the test with hu-IL-2Rγc subunit [1], the IC50 is < 100 µM.

For RSNQTVVECQDWEGVELCWQ [SEQ ID NO 673], the IC50 with hu-IL-2Rγc subunit [1] is < 100 µM; with hu-IL-2Rγc subunit [2] it was < 10 µM.

For the molecule IECEEWAGVELCWL [SEQ ID NO 667], the IC50 is < 100 µM with hu-IL-2Rγc subunit [1] and < 10 µM in the test with hu-IL-2Rγc subunit [2].

Regarding YSRELYVQCEDWEGVELCWI [SEQ ID NO 651], the results for the IC50 with hu-IL-2Rγc subunit [1] and in the test with hu-IL-2Rγc subunit [2] were < 100 µM and < 10 µM, respectively.

RWAVSCQDWQGIELCWPEWD (modifications not checked) [SEQ ID NO 710]: the IC50 in test [3] was < 100 µM; in test [4], < 10 µM.

With FAHHGVVECQEWYGVELCWQ [SEQ ID NO 670], the figures for the IC50 with hu-IL-2Rγc subunit [1] and with hu-IL-2Rγc subunit [2] were < 100 µM and < 10 µM, respectively.

As for PVEVRCQEWEGVELCWVVGI (modifications not checked) [SEQ ID NO 695], the results for the IC50 in test [3] and in test [4] were < 100 µM and < 10 µM, respectively.

With MVNREVVVCEDWYGVELCWQ [SEQ ID NO 643], the half-inhibitory concentration (IC50) is < 100 µM in the test with hu-IL-2Rγc subunit [1] and < 10 µM in the test with hu-IL-2Rγc subunit [2].

Take QLGVECQNWRGVELCWVSEI (modifications not checked) [SEQ ID NO 702]: the IC50 in test [3] was < 100 µM; in test [4], < 10 µM.

As for IECDTSYGVYICWQ [SEQ ID NO 637], the figures for the IC50 with hu-IL-2Rγc subunit [1] and with hu-IL-2Rγc subunit [2] were < 100 µM and < 10 µM, respectively.

In the case of GGVVCQDWEGVSLCWQGG [SEQ ID NO 746], the IC50 in the test with hu-IL-2Rγc subunit [1] was < 100 µM.

Turning to GGVVCQDWEGVGLCWQGG [SEQ ID NO 747], in the test with hu-IL-2Rγc subunit [1], the half-inhibitory concentration (IC50) is < 100 µM.

Turning to RVQVECEDWNGVELCWPVRV (modifications not checked) [SEQ ID NO 687], the 50% inhibitory concentration (IC50) in test [3] was < 100 µM; in test [4], < 10 µM.

For the molecule TDEVSCQEWEGVELCWIERQ (modifications not checked) [SEQ ID NO 694], the figures for the IC50 in test [3] and in test [4] were < 100 µM and < 10 µM, respectively.

With GGVVCQDWEGVXLCWQGG (not fully specified; Abu at residue 12, as printed in the table) [SEQ ID NO 743], the IC50 in the test with hu-IL-2Rγc subunit [1] was < 100 µM.

Turning to AVCQDWYGVELCWCMQDILD (modifications not checked) [SEQ ID NO 705], the IC50 in test [3] is < 100 µM; in test [4], < 10 µM.

Turning to WSKKAEVVCEEWGGVEFCWI [SEQ ID NO 672], the values for the IC50 with hu-IL-2Rγc subunit [1] and with hu-IL-2Rγc subunit [2] were < 100 µM and < 10 µM, respectively.

GGRTGVECQDWHGVELCWPVWEGG [SEQ ID NO 742]: in the test with hu-IL-2Rγc subunit [1], the IC50 is < 100 µM.

As to GPEVVCEEFNRVELCWVEYN (modifications not checked) [SEQ ID NO 696], the IC50 in test [3] was < 100 µM; in test [4] it was < 10 µM.

Regarding HSTVICQDWDGVELCWIEND (modifications not checked) [SEQ ID NO 707], the half-inhibitory concentration (IC50) was < 100 µM in test [3] and < 10 µM in test [4].

Turning to ILCQEFEGVELCWLEESLAE [SEQ ID NO 675], the IC50 is < 100 µM with hu-IL-2Rγc subunit [1] and < 10 µM with hu-IL-2Rγc subunit [2].

With VVCQEWEGVELCWQTGPGAHA (modifications not checked) [SEQ ID NO 699], the half-maximal inhibitory concentration (IC50) in test [3] was < 100 µM; in test [4] it was < 10 µM.

In the case of RTEVECEDWEGVELCWL (modifications not checked) [SEQ ID NO 713], the IC50 was < 100 µM in test [3] and < 10 µM in test [4].

Consider LALRKEVVCQEYYGVELCWI [SEQ ID NO 641], for which the IC50 with hu-IL-2Rγc subunit [1] was < 100 µM; with hu-IL-2Rγc subunit [2] it was < 10 µM.

Take VVCQEWEGVELCWC [SEQ ID NO 661]: the values for the IC50 in the test with hu-IL-2Rγc subunit [1] and with hu-IL-2Rγc subunit [2] were < 100 µM and < 10 µM, respectively.

As to TAEVVCQEWDGVELCWIEVL (modifications not checked) [SEQ ID NO 703], the IC50 in test [3] is < 100 µM; in test [4], < 10 µM.

GGRTEVECEDWEGVELCWLGG [SEQ ID NO 741]: the IC50 with hu-IL-2Rγc subunit [1] was < 100 µM.

As for GGTWNMSELECQDWNGVEICWHGG [SEQ ID NO 740], the IC50 in the test with hu-IL-2Rγc subunit [1] is < 100 µM.

Turning to DVECVDWGGVELCWH [SEQ ID NO 646], the concentration for half-maximal inhibition (IC50) with hu-IL-2Rγc subunit [1] was < 100 µM; with hu-IL-2Rγc subunit [2], < 10 µM.

As to AHSRQEVVCEEWYGVELCWI [SEQ ID NO 649], the IC50 was < 100 µM with hu-IL-2Rγc subunit [1] and < 10 µM with hu-IL-2Rγc subunit [2].

GGVGIECEEWAGVELCWLGG [SEQ ID NO 739]: in the test with hu-IL-2Rγc subunit [1], the IC50 was < 100 µM.

Turning to RLLNSVVECLDWEGVELCWQ [SEQ ID NO 659], the IC50 in the test with hu-IL-2Rγc subunit [1] is < 100 µM; with hu-IL-2Rγc subunit [2], < 10 µM.

Turning to VECEEWGGVELCWLADEVMW (modifications not checked) [SEQ ID NO 706], the IC50 is < 100 µM in test [3] and < 10 µM in test [4].

Take GGDCSMWEGVELCWGG [SEQ ID NO 737]: in the test with hu-IL-2Rγc subunit [1], the IC50 was < 100 µM.

On to SVEVVCEEWHGVELCWPVFI (modifications not checked) [SEQ ID NO 709], for which the IC50 is < 100 µM in test [3] and < 10 µM in test [4].

In the case of EQQVVCQEWNGVELCWIEAG (modifications not checked) [SEQ ID NO 701], the IC50 was < 100 µM in test [3] and < 10 µM in test [4].

With GGVVCQDWEGVELCWQGPPA [SEQ ID NO 749], in the test with hu-IL-2Rγc subunit [1], the IC50 was < 100 µM.

As for VVCQEWEGVELCWYAGECMQ [SEQ ID NO 674], the IC50 in the test with hu-IL-2Rγc subunit [1] was < 100 µM; with hu-IL-2Rγc subunit [2] it was < 10 µM.

Consider DRQVVCEEWDGVELCWIEES (modifications not checked) [SEQ ID NO 688], for which the concentration for half-maximal inhibition (IC50) is < 100 µM in test [3] and < 10 µM in test [4].

On to IECEEWAGVELCWL [SEQ ID NO 716], for which the IC50 with hu-IL-2Rγc subunit [2] was < 10 µM.

Turning to RPEVVCQEWEGVELCWISPL (modifications not checked) [SEQ ID NO 690], the concentration for half-maximal inhibition (IC50) was < 100 µM in test [3] and < 10 µM in test [4].

Take EGSTTTIECEEWAGVELCWL [SEQ ID NO 664]: the IC50 with hu-IL-2Rγc subunit [1] is < 100 µM; in the test with hu-IL-2Rγc subunit [2] it was < 10 µM.

Take RLGVECQEWEGVDLCWISAF (modifications not checked) [SEQ ID NO 691]: the values for the IC50 in test [3] and in test [4] were < 100 µM and < 10 µM, respectively.

Regarding SPSIVCEEWAGVELCWVDYS (modifications not checked) [SEQ ID NO 704], the values for the IC50 in test [3] and in test [4] were < 100 µM and < 10 µM, respectively.

B1: SEQ ID NO 744 (peptide)
peptide: GGVVCQDWEGV[Alb]LCWQGG
modifications: not fully specified; printed as G G V V C Q D W E G V Alb L C W Q G G; cysteine pairing not given here; reading uncertain
Regarding B1, the IC50 in the test with hu-IL-2Rγc subunit [1] is < 100 µM.
